Here are results for 2 proteins from article PMC9504171, “Revealing a New Family of D-2-Hydroxyglutarate Dehydrogenases in Escherichia coli and Pantoea ananatis Encoded by ydiJ” (Microorganisms, 2022).

The term Km denotes the concentration of substrate that gives half-maximal velocity. The kcat is the maximal rate divided by the concentration of active sites. The term kcat/Km denotes the second-order rate constant that governs catalysis at low substrate concentration.

Substrate in data set [1]: O=C(O)CC[C@@H](O)C(=O)O
The data set can be described thus: purified protein. The data set is classed as biochemical, Escherichia coli. The note with it: 200 μM phenazine ethosulfate, 100 μM DCIP, 50 mM Tris-HCl pH 8.0, 25 °C.

Substrate in data set [2]: O=C(O)CC[C@@H](O)C(=O)O
In words: purified protein. As to conditions: 200 μM phenazine ethosulfate, 100 μM DCIP, 50 mM Tris-HCl pH 7.5, 25 °C. The class given is biochemical, Pantoea ananatis.

B1: D2HGDHEc (YdiJ, E. coli) (Escherichia coli K-12) (protein)
chain: MIPQISQAPGVVQLVLNFLQELEQQGFTGDTATSYADRLTMSTDNSIYQLLPDAVVFPRSTADVALIARLAAQERYSSLIFTPRGGGTGTNGQALNQGIIVDMSRHMNRIIEINPEEGWVRVEAGVIKDQLNQYLKPFGYFFAPELSTSNRATLGGMINTDASGQGSLVYGKTSDHVLGVRAVLLGGDILDTQPLPVELAETLGKSNTTIGRIYNTVYQRCRQQRQLIIDNFPKLNRFLTGYDLRHVFNDEMTEFDLTRILTGSEGTLAFITEARLDITRLPKVRRLVNVKYDSFDSALRNAPFMVEARALSVETVDSKVLNLAREDIVWHSVSELITDVPDQEMLGLNIVEFAGDDEALIDERVNALCARLDELIASHQAGVIGWQVCRELAGVERIYAMRKKAVGLLGNAKGAAKPIPFAEDTCVPPEHLADYIAEFRALLDSHGLSYGMFGHVDAGVLHVRPALDMCDPQQEILMKQISDDVVALTAKYGGLLWGEHGKGFRAEYSPAFFGEELFAELRKVKAAFDPHNRLNPGKICPPEGLDAPMMKVDAVKRGTFDRQIPIAVRQQWRGAMECNGNGLCFNFDARSPMCPSMKITQNRIHSPKGRATLVREWLRLLADRGVDPLKLEQELPESGVSLRTLIARTRNSWHANKGEYDFSHEVKEAMSGCLACKACSTQCPIKIDVPEFRSRFLQLYHTRYLRPLRDHLVATVESYAPLMARAPKTFNFFINQPLVRKLSEKHIGMVDLPLLSVPSLQQQMVGHRSANMTLEQLESLNAEQKARTVLVVQDPFTSYYDAQVVADFVRLVEKLGFQPVLLPFSPNGKAQHIKGFLNRFAKTAKKTADFLNRMAKLGMPMVGVDPALVLCYRDEYKLALGEERGEFNVLLANEWLASALESQPVATVSGESWYFFGHCTEVTALPGAPAQWAAIFARFGAKLENVSVGCCGMAGTYGHEAKNHENSLGIYELSWHQAMQRLPRNRCLATGYSCRSQVKRVEGTGVRHPVQALLEIIK
notes: 1018 residues; calculated 113,248 Da; homotetramer ~440 kDa
B1: in “purified protein [1]”, the Km came out at 83 ± 5 µM, the kcat came out at 13.9 s⁻¹ and the kcat/Km was 170000 M⁻¹ s⁻¹.

B2: D2HGDHPa (YdiJ, P. ananatis) (Pantoea ananatis AJ13355) (protein)
chain: MIPQISQAPGLIQRVLTFLETLKAQGFTGDTATSYADRLSLSTDNSIYQLLPDAVLFPRSTADVALIARLAGEAAFSSLVFTPRGGGTGTNGQSLNQGIIVDMSRHMNRILEINTEQRWVRVEAGVVKDQLNAYLKPFGFFFSPELSTSNRATLGGMINTDASGQGSLVYGKTSDHVLGLRAVLLGGDILDTRPVPTALAENLAQTPTPEGRIYQQVLTRCREHRELILEKFPKLNRFLTGYDLRHVFSDDMQTFDLTRLLCGAEGTLAFISEARLDITPLPKVRRVVNIKYDAFDSALRNAPLMVEAQALSVETVDSKVLNLAREDIVWHSVRELITAIPDKEMLGLNIVEFAGDDAGQIDRQITQLCARLDTLMTQQQGGVIGYQLCDDLDGIERIYNMRKKAVGLLGNAKGRAKPIPFVEDTAVPPEHLADYIVEFRALLDSHGLSYGMFGHVDAGVLHVRPALDMCDPHQEMMMKQISDEVVALTARYGGLLWGEHGKGFRAQYSPAFFGETLFNELRRIKAAFDPHNRLNPGKICTPFDSEAAMMQVDATKRGSYDRQIPLQVRETWRGALECNGNGLCFNFDARSPMCPSMKITRNRIHSPKGRATLTREWLRLLAEQGADPVMLEKKLPESSLSLRALISRMRNTWYANKGEYDFSHEVKEAMSGCLACKACSTQCPIKIDVPAFRSRFLQLYHTRYLRPLSDHLVAGVESYAPLMAKAPGVFNFFLKQPWATSFSKTHIGMVDLPLLSSPTLKQQLSGHPAMNMTLEQLEALSETQRAQKVLVVQDPFTSFYEAKLVHDFIRLIEKLGYQPVLLPFSPNGKAQHVKGFLQRFARTASKTADFLNRVAKLGMPMVGIDPATVLCYRDEYHQMLGEARGDFNVLLVHEWLHQALQEREVQVTSGEAWYLFAHCTEVTALPGTPGQWQAIFSRFGAKLENINVGCCGMAGTYGHESQNLENSLGIYALSWHPQLQKLPRQRCLATGFSCRSQVKRVEGNGMRHPLQALLELI
notes: 1018 residues; calculated 113,453 Da; homotetramer ~440 kDa
For the protein B2, in “purified protein [2]”, the Km was found to be 208 ± 10 µM, the kcat was determined as 9.7 s⁻¹ and the kcat/Km is 50000 M⁻¹ s⁻¹.
